Consider 3 proteins from US20020019519.

First the molecules themselves.
B1: His and myc epitope tagged human NAK amino acids 1-337 (from pcDNA3.1.NAK(1-337)-Hm, expressed in HEK293 cells) (protein)
chain: MASDSPARSLDEIDLSALRDPAGIFELVELVGNGTYGQVYKGRHVKTGQLAAIKVMDVTGDEEEEIKQEINMLKKYSHHRNIATYYGAFIKKNPPGMDDQLWLVMEFCGAGSVTDLIKNTKGNTLKEEWIAYICREILRGLSHLHQHKVIHRDIKGQNVLLTENAEVKLVDFGVSAQLDRTVGRRNTFIGTPYWMAPEVIACDENPDATYDFKSDLWSLGITAIEMAEGAPPLCDMHPMRALFLIPRNPAPRLKSKKWSKKFQSFIESCLVKNHSQRPATEQLMKHPFIRDQPNERQVRIQLKDHIDRTKKKRGEKDETEYEYSGSEEEEEENDSGE
B2: recombinant full-length human NAK protein with hexa His and myc epitope tags (from pcDNA3.1.NAK-Hm, expressed in HEK293 cells) (protein)
chain: MASDSPARSLDEIDLSALRDPAGIFELVELVGNGTYGQVYKGRHVKTGQLAAIKVMDVTGDEEEEIKQEINMLKKYSHHRNIATYYGAFIKKNPPGMDDQLWLVMEFCGAGSVTDLIKNTKGNTLKEEWIAYICREILRGLSHLHQHKVIHRDIKGQNVLLTENAEVKLVDFGVSAQLDRTVGRRNTFIGTPYWMAPEVIACDENPDATYDFKSDLWSLGITAIEMAEGAPPLCDMHPMRALFLIPRNPAPRLKSKKWSKKFQSFIESCLVKNHSQRPATEQLMKHPFIRDQPNERQVRIQLKDHIDRTKKKRGEKDETEYEYSGSEEEEEENDSGEPSSILNLPGESTLRRDFLRLQLANKERSEALRRQQLEQQQRENEEHKRQLLAERQKRIEEQKEQRRRLEEQQRREKELRKQQEREQRRHYEEQMRREEERRRAEHEQEYIRRQLEEEQRQLEILQQQLLHEQALLLEYKRKQLEEQRQAERLQRQLKQERDYLVSLQHQRQEQRPVEKKPLYHYKEGMSPSEKPAWAKEVEERSRLNRQSSPAMPHKVANRISDPNLPPRSESFSISGVQPARTPPMLRPVDPQIPHLVAVKSQGPALTASQSVHEQPTKGLSGFQEALNVTSHRVEMPRQNSDPTSENPPLPTRIEKFDRSSWLRQEEDIPPKVPQRTTSISPALARKNSPGNGSALGPRLGSQPIRASNPDLRRTEPILESPLQRTSSGSSSSSSTPSSQPSSQGGSQPGSQAGSSERTRVRANSKSEGSPVLPHEPAKVKPEESRDITRPSRPASYKKAIDEDLTALAKELRELRIEETNRPMKKVTDYSSSSEESESSEEEEEDGESETHDGTVAVSDIPRLIPTGAPGSNEQYNVGMVGTHGLETSHADSFSGSISREGTLMIRETSGEKKRSGHSDSNGFAGHINLPDLVQQSHSPAGTPTEGLGRVSTHSQEMDSGTEYGMGSSTKASFTPFVDPRVYQTSPTDEDEEDEESSAAALFTSELLRQEQAKLNEARKISVVNVNPTNIRPHSDTPEIRKYKKRFNSEILCAALWGVNLLVGTENGLMLLDRSGQGKVYNLINRRRFQQMDVLEGLNVLVTISGKKNKLRVYYLSWLRNRILHNDPEVEKKQGWITVGDLEGCIHYKVVKYERIKFLVIALKNAVEIYAWAPKPYHKFMAFKSFADLQHKPLLVDLTVEEGQRLKVIFGSHTGFHVIDVDSGNSYDIYIPSHIQGNITPHAIVILPKTDGMEMLVCYEDEGVYVNTYGRITKDVVLQWGEMPTSVAYIHSNQIMGWGEKAIEIRSVETGHLDGVFMHKRAQRLKFLCERNDKVFFASVRSGGSSQVFFMTLNRNSMMNW
B3: His and myc epitope tagged human NAK amino acids 1-529 (from pcDNA3.1.NAK(1-529)-Hm, expressed in HEK293 cells) (protein)
chain: MASDSPARSLDEIDLSALRDPAGIFELVELVGNGTYGQVYKGRHVKTGQLAAIKVMDVTGDEEEEIKQEINMLKKYSHHRNIATYYGAFIKKNPPGMDDQLWLVMEFCGAGSVTDLIKNTKGNTLKEEWIAYICREILRGLSHLHQHKVIHRDIKGQNVLLTENAEVKLVDFGVSAQLDRTVGRRNTFIGTPYWMAPEVIACDENPDATYDFKSDLWSLGITAIEMAEGAPPLCDMHPMRALFLIPRNPAPRLKSKKWSKKFQSFIESCLVKNHSQRPATEQLMKHPFIRDQPNERQVRIQLKDHIDRTKKKRGEKDETEYEYSGSEEEEEENDSGEPSSILNLPGESTLRRDFLRLQLANKERSEALRRQQLEQQQRENEEHKRQLLAERQKRIEEQKEQRRRLEEQQRREKELRKQQEREQRRHYEEQMRREEERRRAEHEQEYIRRQLEEEQRQLEILQQQLLHEQALLLEYKRKQLEEQRQAERLQRQLKQERDYLVSLQHQRQEQRPVEKKPLYHYKEGMSPSE

The series deals with myelin basic protein (MBP) (Sigma).
Chain of myelin basic protein (MBP) (Sigma) (P02687 whole entry): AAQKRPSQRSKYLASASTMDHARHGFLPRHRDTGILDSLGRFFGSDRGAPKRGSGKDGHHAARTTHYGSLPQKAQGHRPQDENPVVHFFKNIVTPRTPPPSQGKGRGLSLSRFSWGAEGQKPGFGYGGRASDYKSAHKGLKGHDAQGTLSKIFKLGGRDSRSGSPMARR
As for B1, the “kinase activity (incorporation of phosphate in MBP, 32P, P81 paper, scintillation counting)” value is listed as “display increased kinase activity (FIG. 4b)”.

For B2, the “kinase activity (incorporation of phosphate in MBP, 32P, P81 paper, scintillation counting)” value is recorded as “Recombinant NAK protein displays enzymatic (kinase) activity”. As for B3, the entry is “display increased kinase activity (FIG. 4b)”.
